Article doi:10.1101/2022.09.09.507385 (bioRxiv, 2022)

Target: the molecule itself
Assay: cryo-EM structure

B1: human Pannexin3 (PANX3), full length (natural protein)
chain: MSLAHTAAEYMLSDALLPDRRGPRLKGLRLELPLDRIVKFVAVGSPLLLMSLAFAQEFSSGSPISCFSPSNFSIRQAAYVDSSCWDSLLHHKQDGPGQDKMKSLWPHKALPYSLLALALLMYLPVLLWQYAAVPALSSDLLFIISELDKSYNRSIRLVQHMLKIRQKSSDPYVFWNELEKARKERYFEFPLLERYLACKQRSHSLVATYLLRNSLLLIFTSATYLYLGHFHLDVFFQEEFSCSIKTGLLSDETHVPNLITCRLTSLSIFQIVSLSSVAIYTILVPVIIYNLTRLCRWDKRLLSVYEMLPAFDLLSRKMLGCPINDLNVILLFLRANISELISFSWLSVLCVLKDTTTQKHNIDTVVDFMTLLAGLEPSKPKHLTNSACDEHP
modifications: N-acetylglucosamine (NAG) at N71; disulfide bonds C66-C261 and C84-C242
For B1, the “stoichiometry N” value was 7.

B2: human Pannexin1 wild type (PANX1WT), full length (natural protein)
chain: MAIAQLATEYVFSDFLLKEPTEPKFKGLRLELAVDKMVTCIAVGLPLLLISLAFAQEISIGTQISCFSPSSFSWRQAAFVDSYCWAAVQQKNSLQSESGNLPLWLHKFFPYILLLFAILLYLPPLFWRFAAAPHICSDLKFIMEELDKVYNRAIKAAKSARDLDMRDGACSVPGVTENLGQSLWEVSESHFKYPIVEQYLKTKKNSNNLIIKYISCRLLTLIIILLACIYLGYYFSLSSLSDEFVCSIKSGILRNDSTVPDQFQCKLIAVGIFQLLSVINLVVYVLLAPVVVYTLFVPFRQKTDVLKVYEILPTFDVLHFKSEGYNDLSLYNLFLEENISEVKSYKCLKVLENIKSSGQGIDPMLLLTNLGMIKMDVVDGKTPMSAEMREEQGNQTAELQGMNIDSETKANNGEKNARQRLLDSSC
B2: binds.

B3: human Pannexin1 congenital mutant R217H (PANX1_(R217H)) (natural protein)
chain: MAIAQLATEYVFSDFLLKEPTEPKFKGLRLELAVDKMVTCIAVGLPLLLISLAFAQEISIGTQISCFSPSSFSWRQAAFVDSYCWAAVQQKNSLQSESGNLPLWLHKFFPYILLLFAILLYLPPLFWRFAAAPHICSDLKFIMEELDKVYNRAIKAAKSARDLDMRDGACSVPGVTENLGQSLWEVSESHFKYPIVEQYLKTKKNSNNLIIKYISCHLLTLIIILLACIYLGYYFSLSSLSDEFVCSIKSGILRNDSTVPDQFQCKLIAVGIFQLLSVINLVVYVLLAPVVVYTLFVPFRQKTDVLKVYEILPTFDVLHFKSEGYNDLSLYNLFLEENISEVKSYKCLKVLENIKSSGQGIDPMLLLTNLGMIKMDVVDGKTPMSAEMREEQGNQTAELQGMNIDSETKANNGEKNARQRLLDSSC
B3: binds.

B4: human Pannexin1 double mutant W74R/R75D (PANX1DM) (natural protein)
chain: MAIAQLATEYVFSDFLLKEPTEPKFKGLRLELAVDKMVTCIAVGLPLLLISLAFAQEISIGTQISCFSPSSFSRDQAAFVDSYCWAAVQQKNSLQSESGNLPLWLHKFFPYILLLFAILLYLPPLFWRFAAAPHICSDLKFIMEELDKVYNRAIKAAKSARDLDMRDGACSVPGVTENLGQSLWEVSESHFKYPIVEQYLKTKKNSNNLIIKYISCRLLTLIIILLACIYLGYYFSLSSLSDEFVCSIKSGILRNDSTVPDQFQCKLIAVGIFQLLSVINLVVYVLLAPVVVYTLFVPFRQKTDVLKVYEILPTFDVLHFKSEGYNDLSLYNLFLEENISEVKSYKCLKVLENIKSSGQGIDPMLLLTNLGMIKMDVVDGKTPMSAEMREEQGNQTAELQGMNIDSETKANNGEKNARQRLLDSSC
B4: binds.
